Source: the RNAGym collection of RNA variant scans (doi:10.1073/pnas.2313332121)

B1: TPR t1 (parent)
chain: GACCAAUCUGCCCUCAGAGCUCGAGAACAUCUUCGGAUGCAGAGGAGGCAGGCUUCGGUGGCGCGAUAGCGCCAACGUCCUCAACCUCCAAUGCAUCCCACCACAUGAUGAUGCCUGAAGAGCCUUGGUUUUUUG

Variants of: B1
Test: polymerase ribozyme fitness, log enrichment relative to wild type (log ratio); higher = more active; in vitro selection for triplet polymerase activity
How it was run: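 After PCR construction and transcription, each subunit's mutant library from a heterodimeric triplet polymerase ribozyme was annealed with a biotinylated primer, the partner subunit and triplets. Incubation was frozen, at −7 °C, and extended constructs were gel-excised, bound to streptavidin beads and amplified by RT-PCR, in one selection round done in triplicate. Fitness is the logarithm of a genotype's enrichment divided by that of the wild type, from inverse-variance-weighted replicate averages of Illumina-sequenced inputs and outputs. The base of the logarithm is 2, and genotypes needed ≥10 input reads and ≥1 read per output.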

Variant | polymerase ribozyme fitness (log ratio)
C11A C22G G48A C72G A119G | -4.64
G10U C13G C72U | -0.677
C11A G113A C114U U133G | -5
G10U A84G G120A U125G | 0.926
C11A C22G G48A A119G | -3.23
G10U G71A G120U | 1.24
C11A G58C | -2.25
G10U C72A C124G | 1
G10U C13A G48U C94U U132A | -0.329
G10U G60U U112A C114U | -1.17
C11A C22A C56G U78A U112A U131A | -2.4
C11A C34A C88G U106C | -5.02
G10U C12U C82A A84G | -0.497
G10U C13U C73U C102G A119U C124A | -5.74
G10U C34G G65U A66C C123U U125A G128U | -7.34
G10U A46U C82G G127U | -3.03
G10U C80U | -0.415
C11A G60U U87C U112C G117A U130C | -5.25
C11A G113U | -3.17
G10U U30C U33C G71U C79U C101A C102G A111U | -7.18
G10U G77A C79U C94U | -0.432
C11A C13G C31U A46U U109G | -7.98
C11A A37U G51U C56U A68U C98A U109A | -8.64
C11A A50G U81A | -2.23

Variant | polymerase ribozyme fitness (log ratio)
C11A A50U | -2.48
G10U C56U G117C G122U | -3.32
G10U U32G C102U C124U U126G | -7.39
G10U A75U | -0.536
C11A U30C U81A C104G A111U A119G U132C | -6.53
G10U C15U G69U A91C U125A | -3.03
G10U G39U | -0.472
G10U C40G C124U U129A | -1.91
G10U C40U G52U C64U | -1.92
C11A C49U C85A U106A | -3.44
G10U C22A C72U U92G A105U A118G | -7.38
C11A G39U G71A | -2.63
G10U U30C | -2.43
C11A C98U U125A | -2.97
C11A C56A A66G C85A U112A | -4.09
C11A C85A C114A C123U | -2.71
C11A C40A G52A U92A | -3.14
G10U C34A G69U G122A | 0.552
C11A G17U U112A U131G | -3.56
C11A G113C G135U | -4.88
G10U G48U G93A | -1.17
G10U G113C G120U A121C | -2.24
G10U G44U C53U U96A U109C | -7.37
C11A C56G | -1.77

Variant | polymerase ribozyme fitness (log ratio)
G10U G52U G61U G127A | -2.92
C11A A74U | -2.52
C11A G36A A50G G113C | -4.17
G10U G47C C104U | -1.69
G10U C15G G61A | -1.63
C11A C12U U38A G69C | -2.89
C11A A119U | -1.67
C11A C12U G25U C56U G69C C98U G110A | -6.12
C11A C15U C28G C123G G128U | -5.63
C11A G69A C82U | -3.91
G10U G120U | 1.99
C11A C62U G117A G122A | -0.74
C11A G63C U81G | -5.33
C11A G39A A43U U59C A91C G113A A118G C124G U125A | -4.98
G10U G42A G61C | -5.15
C11A G71C U125G G135U | -3.28
C11A C12G A27U G63U G77A | -5.74
G10U U59C C85U | -0.716
G10U C13A A41C G71A C85U | -3.61
C11A C12U G57U U87G G93A C102A | -4.56
G10U C22U C98U | -5.53
G10U C20A A50C C72U C114U | -4.68
C11A C53U C56A C76G | -3.44
G10U G19A G36C C79U | -3.73

Variant | polymerase ribozyme fitness (log ratio)
C11A C73G | -1.79
C11A U33G C56G A103G G122A | -6.79
C11A G57U G93U | -3.77
G10U C20A A66G | -4.29
G10U G69U U112G C123G | 1.15
G10U C70U U78C C82G | -2.45
G10U U14A C40A | -2.63
G10U C12A C56A C72A C82A | -1.27
C11A G17A | -6.16
C11A G17C | -4.25
C11A C49U C102A | -3.16
G10U G17U C56U U109A G110C A118G C123A | -6.9
C11A A29U U59A C70U G120A | -1.3
C11A G47U C56A C86A U106G | -3.84
G10U C12G G17U G113A U126G | -4.16
C11A C82A | -2.13
G10U C89A G117U | -4.64
G10U C88U | -0.654
C11A G58C U59G U81A | -2.19
C11A G45U G71C A121C U132A | -0.245
C11A C13G C72U C88G G113A | -5.81
G10U C11G C62G | -1.22
C11A U30C G63U C64U U81A C104G A111U A119G U132C | -6.95
G10U C22U G47A U96A C123A | -5.89

Variant | polymerase ribozyme fitness (log ratio)
G10U C40G U96G | -4.29
C11A A37U C62A C102A | -5.51
C11A C12U G61U A100U | -1.23
G10U C82A U92G U116C A119U | -5.07
G10U G60A C123G C124A | 3.33
C11A C72G C79A C85A A121U | -1.86
C11A A95U U96A C101G U106C C124A | -3.67
G10U C20U A43C A50C C79G C88U A121G | -4.86
C11A G47A | -3.21
C11A C12U A37G C73U U78A U131A | -0.943
G10U A121U | 1.92
C11A C101A | -3.16
C11A G39A A105C | -3.91
C11A C28U C53U C89A | -5.79
C11A G60U G71C U87C U112C G117A U130C | -7.15
C11A C123G | 1.15
G10U C15U A18U C49A C70U C80A G93U G117U | -7.04
G10U G48U G63A C85U C86G | -3.3
G10U G128U U132C | -0.604
C11A G45U C49U C70U U87A | -3.95
G10U G48C G60A | -0.865
C11A G47A C102A | -4.79
C11A C82G C101A A121C | -0.28
G10U C15G G120A | -1.69

Variant | polymerase ribozyme fitness (log ratio)
G10U A118U | -0.131
G10U C20U U32A U125G | -4.96
C11A G48U U96G U112C | -1.36
C11A A16G G23U G39C C76U A95C G113U C114G | -7.17
C11A C80G C88U | -6.42
C11A C13G G36U | -2.87
C11A C64U U106A A108U | -3.91
G10U C40A G77A G128U | -3.6
G10U G113C U125A | -3.42
C11A C12G C73A C104U G120A | -1.09
G10U G42U C89U | -1.96
G10U G42A G45U | -3.02
G10U G122A | 0.462
C11A C40U G45A C70A G120C | -1.21
G10U C20A C56U | -2.94
C11A G17C G19A G39A G69U C123G | -5.74
G10U A103U | -4.38
G10U C15A G61U A75C G117A | -3.07
C11A C53U U129A | -2.66
C11A G120A | 0.576
C11A G42A U54A C64U U129C | -4.74
C11A G44C G48U | -4.1
C11A C56A C64U U126G | -4.75
G10U G23A U30G U32A G35U G51A C70G | -6.22

Variant | polymerase ribozyme fitness (log ratio)
G10U C40G G44C A111C | -4.09
G10U A105C | -2.95
G10U U92C | -0.873
G10U U92G | -3.71
C11A U30G A37C U112C | -5.59
G10U G63U G113C | -4.79
G10U U38G C70A C73U C123A U130G | -3.12
G10U C97U | -0.693
C11A C49G G60A G93U | -2.13
C11A G42C A118G | -3.71
C11A G113U G122U | -2.8
G10U C20A G42A G93U C115U | -3.5
G10U U59A G71U | -2.51
G10U G58U U78C G122A C124U | 0.946
G10U G69A A91C | -7.2
G10U C114A U125A G135U | -3.39
C11A G47A G69U G77U | -1.86
G10U A46C C70G C94U U133A G135U | -4.06
C11A U33G G52U C56U C64G G120C | -6.81
G10U C28U | -2.12
C11A G36A C79U U87A | -4.09
G10U C53G U55A C56A G63A | -2.18
C11A C124A | 1.26
